Assay results as given in PMC4809050 (2016).

What was measured:
Assay in all cases: NMR chemical shift titration
[1] = target: T1, CCR7 N-terminus peptide 2-30 (Homo sapiens, UniProt P32248)
T1 chain: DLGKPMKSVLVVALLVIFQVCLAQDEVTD

[2] = target: PSGL-1 N-terminus peptide 1-15 (Homo sapiens, UniProt Q14242, N-terminal pyroglutamate)
[3] = target: T2, PSGL-1 N-terminus peptide 2-15 (Homo sapiens, UniProt Q14242)
T2 chain: PLQLLLLLILLGPG

[4] = target: T3, CCR7 N-terminus peptide 1-30 (Homo sapiens, UniProt P32248)
T3 chain: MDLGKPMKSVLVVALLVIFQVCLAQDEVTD

- Kd [1]: 12 µM
- Kd [2]: 20 µM
- Kd [3]: 18 µM
- Kd [4]: 52 µM
B1: CCL19 (protein)
chain: GTNDAEDCCLSVTQKPIPGYIVRNFHYLLIKDGCRVPAVVFTTLRGRQLCAPPDQPWVERIIQRLQRTSAKMKRRSS
